Columns and labels:
[1] = molecular target: [3H]acetyl-labelled peptide corresponding to the N-Terminus of histone H4, P62805
[2] = molecular target: [3H]acetyl-labelled peptide corresponding to the N-Terminus of Histone H3, P68431

B1: N-Terminus flag tagged HDAC9 (protein)
chain: MHSMISSVDVKSEVPVGLEPISPLDLRTDLRMMMPVVDPVVREKQLQQELLLIQQQQQIQKQLLIAEFQKQHENLTRQHQAQLQEHIKLQQELLAIKQQQELLEKEQKLEQQRQEQEVERHRREQQLPPLRGKDRGRERAVASTEVKQKLQEFLLSKSATKDTPTNGKNHSVSRHPKLWYTAAHHTSLDQSSPPLSGTSPSYKYTLPGAQDAKDDFPLRKTASEPNLKVRSRLKQKVAERRSSPLLRRKDGNVVTSFKKRMFEVTESSVSSSSPGSGPSSPNNGPTGSVTENETSVLPPTPHAEQMVSQQRILIHEDSMNLLSLYTSPSLPNITLGLPAVPSQLNASNSLKEKQKCETQTLRQGVPLPGQYGGSIPASSSHPHVTLEGKPPNSSHQALLQHLLLKEQMRQQKLLVAGGVPLHPQSPLATKERISPGIRGTHKLPRHRPLNRTQSAPLPQSTLAQLVIQQQHQQFLEKQKQYQQQIHMNKLLSKSIEQLKQPGSHLEEAEEELQGDQAMQEDRAPSSGNSTRSDSSACVDDTLGQVGAVKVKEEPVDSDEDAQIQEMESGEQAAFMQQPFLEPTHTRALSVRQAPLAAVGMDGLEKHRLVSRTHSSPAASVLPHPAMDRPLQPGSATGIAYDPLMLKHQCVCGNSTTHPEHAGRIQSIWSRLQETGLLNKCERIQGRKASLEEIQLVHSEHHSLLYGTNPLDGQKLDPRILLGDDSQKFFSSLPCGGLGVDSDTIWNELRSSGAARMAVGCVIELASKVASGELKNGFAVVRPPGHHAEESTAMGFCFFNSVAITAKYLRDQLNISKILIVDLDVHHGNGTQQAFYADPSILYISLHRYDEGNFFPGSGAPNEVGTGLGEGYNINIAWTGGLDPPMGDVEYLEAFRTIVKPVAKEFDPDMVLVSAGFDALEGHTPPLGGYKVTAKCFGHLTKQLMTLADGRVVLALEGGHDLTAICDASEACVNALLGNELEPLAEDILHQSPNMNAVISLQKIIEIQSKYWKSVRMVAVPRGCALAGAQLQEETETVSALASLTVDVEQPFAQEDSRTAGEPMEEEPAL
[1]
  histone deacetylase activity (release of [3H]acetate from the peptide), relative to HDAC1: HDAC9 contains about 25% activity of HDAC1
  histone deacetylase activity (release of [3H]acetate from the peptide), relative to HDACs 4 and 5: 50% activity of HDACs 4 and 5
[2]
  histone deacetylase activity (release of [3H]acetate from the peptide): Higher activities of HDAC9 have been detected towards peptide substrates derived from histone H3 than from histone H4

Reference: patent US7291492
